# According to patent US20120021993A1 (AJOU UNIVERSITY INDUSTRY ACADEMIC COOPERATION FOUNDATION, published 2012):
# T1: DcR1 (UniProt O14798 26-221, limits assumed)
# T1 sequence (looked up): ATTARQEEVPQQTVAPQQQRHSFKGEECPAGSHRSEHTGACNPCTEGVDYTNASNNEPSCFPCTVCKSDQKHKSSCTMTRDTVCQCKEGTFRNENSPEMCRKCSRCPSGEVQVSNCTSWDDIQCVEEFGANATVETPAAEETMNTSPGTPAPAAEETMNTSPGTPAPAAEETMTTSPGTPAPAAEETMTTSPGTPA
# T2: DcR2 (UniProt Q9UBN6 56-211, limits assumed)
# T2 sequence (looked up): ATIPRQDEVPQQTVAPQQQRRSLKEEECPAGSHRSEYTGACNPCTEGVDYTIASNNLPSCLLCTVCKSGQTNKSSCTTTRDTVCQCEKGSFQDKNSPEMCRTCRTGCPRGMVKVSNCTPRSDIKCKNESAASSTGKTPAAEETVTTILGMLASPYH
# B1: KD413 (designed binder)
# chain: CAKAEGTGYDGHEHKTHKGIRCQNWYKSKPHYHGHQFRDGDKIKNKKNYCRNPDPRAGPWCFTHGNRNRYELCNQPRC
# notes: Soluble monomer from Pichia pastoris; also called anti-DR4 Kringle domain variant KD413; not shown: C-terminal myc tag-6xHis tag of pPICZaA
# B2: PgnKD2 (other, human, UniProt P00747 184-262, looked up)
# single chain: ECMHCSGENYDGKISKTMSGLECQAWDSQSPHAHGYIPSKFPNKNLKKNYCRNPDRELRPWCFTTDPNKRWELCDIPRC
# notes: isolated Kringle domain 2; negative control; also called wild-type plasminogen Kringle domain 2
# B3: KD415 (designed binder)
# chain: CTRSKGDEYDGHKHKTNRGLRCQHWPGTKPHFHGDKIKDRHGFRLKKNYCRNPDPQDQPWCFTNRHQHKNELCNQPRC
# notes: Soluble monomer from Pichia pastoris; also called anti-DR4 Kringle domain variant KD415; not shown: C-terminal myc tag-6xHis tag of pPICZaA
# B4: KD413-KD506 hetero-dimer (designed binder, not shown: small tags and cut ends)
# chain: CAKAEGTGYDGHEHKTHKGIRCQNWYKSKPHYHGHQFRDGDKIKNKKNYCRNPDPRAGPWCFTHGNRNRYELCNQPRCGGGGSGGGGSGGGGSGGGGSCPEDRGHEYDGDGDKTNRGHGCQYWDQNKPHHHGHRDKDKFKHRIKKNYCRNPDYETGPWCFTNRYRNKNELCHEPRC
# B5: KD548 (designed binder)
# chain: CHQTQGPKYDGNKDKTHKGHKCQSWTKNRPHHHGNKIENEDENRFQKNYCRNPDNKHEPWCFTHGHRDKHELCHEPRC
# notes: Soluble monomer from Pichia pastoris; also called anti-DR5 Kringle domain variant KD548; not shown: C-terminal myc tag-6xHis tag of pPICZaA
# Assays:
# cell surface DR4 = cell surface DR4 (human, UniProt O00220 24-468); experiment: cell-based or functional assay
# [1] = molecular target: T3, human-derived cell death receptor 4, extracellular domain (amino acid residues 1-216), 6xHis tag (human, UniProt O00220 24-239); experiment: ELISA, coated DR4, A405
# T3 construct: extracellular domain; Expressed in E. coli; biotinylated for sorting and flow cytometry; residues 1-216; also called DR4; TRAIL-receptor 1
# [2] = molecular target: T3, human-derived cell death receptor 4, …; experiment: ELISA, coated target, A405
# Protocol: In order to measure the affinity and cross reactivity of the anti-DR4, -DR5 and -TNFα protein scaffold variants based on the Kringle domain structure to the target molecules, an enzyme-linked immunosorbent assay (ELISA) was performed. The target molecules DR4, DR5, TNFα and DcR1, DcR2 were attached to a 96 well EIA/RIA plate (COSTARCorning In., USA) by its reaction at 37° C. for 1 hour, and washed three times with 0.1% PBST (0.1% Tween20, pH 7.4, 137 mM NaCl, 10 mM Phosphate, 2.7 mM KCl, SIGMA-ALDRICH Co., USA) for 10 minutes. The target molecules were attached for 1 hour to a 96 well EIA/RIA plate in 1% PBSB (1% BSA, pH 7.4, 137 mM NaCl, 10 mM Phosphate, 2.7 mM KCl, SIGMA-ALDRICH Co., USA), and then washed three times with 0.1% PBST (0.1% Tween 20, pH 7.4, 137 mM NaCl, 10 mM Phosphate, 2.7 mM KCl, SIGMA-ALDRICH Co., USA) for 10 minutes. Then, the anti-DR4, -DR5 and -TNFα Kringle domain variants were bound, and washed three times with 0.1% PBST for 10 minutes. […] Each of the Kringle domain variants was reacted with […] (pNPP, Sigma-aldrich Co., USA) and quantified at an absorbance of 405 nm.
# In order to analyze the affinities of the Fc-fused anti-DR4, -DR5 and -TNFα Kringle domains to target molecules, the affinities of the Fc-fused anti-DR4, -DR5 and -TNFα Kringle domains to the target molecules were analyzed using ELISA, as described in Example 8.
# [3] = molecular target: T3, human-derived cell death receptor 4, …; experiment: ELISA, coated target, A405; remark: listed apart in the source
# [4] = molecular target: T3, human-derived cell death receptor 4, …; experiment: ELISA on coated DR4, KD413 alone, A405
# [5] = molecular target: T3, human-derived cell death receptor 4, …; experiment: ELISA on coated DR4, KD413 alone, A405; remark: listed apart in the source
# [6] = molecular target: T3, human-derived cell death receptor 4, …; experiment: ELISA, coated target, A405 [upper panel]
# Protocol: (§1) In order to measure the affinity and cross reactivity of the anti-DR4, -DR5 and -TNFα protein scaffold variants based on the Kringle domain structure to the target molecules, an enzyme-linked immunosorbent assay (ELISA) was performed. The target molecules DR4, DR5, TNFα and DcR1, DcR2 were attached to a 96 well EIA/RIA plate (COSTARCorning In., USA) by its reaction at 37° C. for 1 hour, and washed three times with 0.1% PBST (0.1% Tween20, pH 7.4, 137 mM NaCl, 10 mM Phosphate, 2.7 mM KCl, SIGMA-ALDRICH Co., USA) for 10 minutes. The target molecules were attached for 1 hour to a 96 well EIA/RIA plate in 1% PBSB (1% BSA, pH 7.4, 137 mM NaCl, 10 mM Phosphate, 2.7 mM KCl, SIGMA-ALDRICH Co., USA), and then washed three times with 0.1% PBST (0.1% Tween 20, pH 7.4, 137 mM NaCl, 10 mM Phosphate, 2.7 mM KCl, SIGMA-ALDRICH Co., USA) for 10 minutes. Then, the anti-DR4, -DR5 and -TNFα Kringle domain variants were bound, and washed three times with 0.1% PBST for 10 minutes. The anti-DR4, -DR5 and -TNFα Kringle domain variants were primarily bound to mouse-derived anti-c-myc 9e10 mAb (Ig Therapy, Korea), and secondarily bound to alkaline phosphatase (AP)-conjugated anti-mouse mAb (Sigma). Each of the Kringle domain variants was reacted with […] (pNPP, Sigma-aldrich Co., USA) and quantified at an absorbance of 405 nm.
# DcR1 [7] = molecular target: T1, DcR1; experiment: yeast display, flow cytometry MFI [panel KD413]
# DcR2 = molecular target: T2, DcR2; experiment: ELISA, coated target, single binder concentration not given, A405
# Protocol: as §1
# [8] = molecular target: T3, human-derived cell death receptor 4, …; experiment: competitive ELISA on coated DR4, biotinylated KD413 with TRAIL (amount not given), A405
# [9] = molecular target: T3, human-derived cell death receptor 4, …; experiment: competitive ELISA on coated DR4, biotinylated KD413 with KD415 (amount not given), A405
# [10] = molecular target: T3, human-derived cell death receptor 4, …; experiment: ELISA, coated target, single binder concentration not given, A405
# Protocol: as §1
# [11] = molecular target: T4, TNFα, extracellular domain (amino acid residue 1-157), 6xHis tag (human, UniProt P01375 57-233); experiment: as above
# T4 construct: extracellular domain; Expressed in E. coli; The printed residues 1-157 seem to count on the soluble form, not on the precursor; also called human TNFα; tumor necrosis factor alpha
# T4 sequence (P01375 other isoform, or with tags, fused parts or gaps limits assumed): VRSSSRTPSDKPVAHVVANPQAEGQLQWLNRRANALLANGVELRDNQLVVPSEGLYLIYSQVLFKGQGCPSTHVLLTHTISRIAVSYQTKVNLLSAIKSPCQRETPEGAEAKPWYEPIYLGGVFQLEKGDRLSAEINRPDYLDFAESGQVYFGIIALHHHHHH
# Protocol: as §1
# DcR1 [12] = molecular target: T1, DcR1; experiment: as above
# Protocol: as §1
# [13] = molecular target: T3, human-derived cell death receptor 4, …; experiment: ELISA, coated target, A405; remark: listed apart in the source
# Protocol: as §1
# [14] = molecular target: T3, human-derived cell death receptor 4, …; experiment: ELISA on coated DR4, KD415 alone, A405
# [15] = molecular target: T3, human-derived cell death receptor 4, …; experiment: ELISA, coated target, A405 [lower panel]
# Protocol: as §1
# [16] = molecular target: T3, human-derived cell death receptor 4, …; experiment: competitive ELISA on coated DR4, biotinylated KD415 with TRAIL (amount not given), A405
# [17] = molecular target: T5, human-derived cell death receptor 5, extracellular domain (amino acid residues 1-130), 6xHis tag (human, UniProt O14763 56-210); experiment: ELISA, coated DR5, A405
# T5 construct: extracellular domain; Expressed in E. coli; biotinylated for sorting and flow cytometry; also called DR5; TRAIL-receptor 2
# [18] = molecular target: T3, human-derived cell death receptor 4, …; experiment: sandwich ELISA: DR4 coated, binder titrated, soluble DR5 detected, A405
# cell surface DR5 = cell surface DR5 (human, UniProt O14763 56-440); experiment: cell-based or functional assay
# [19] = molecular target: T5, human-derived cell death receptor 5, …; experiment: ELISA, coated target, A405
# Protocol: as §1
# [20] = molecular target: T5, human-derived cell death receptor 5, …; experiment: ELISA, coated target, A405; remark: listed apart in the source
# Protocol: as §1
# [21] = molecular target: T5, human-derived cell death receptor 5, …; experiment: ELISA on coated DR5, KD548 alone, A405
# [22] = molecular target: T5, human-derived cell death receptor 5, …; experiment: ELISA on coated DR5, KD548 alone, A405; remark: listed apart in the source
# [23] = molecular target: T5, human-derived cell death receptor 5, …; experiment: ELISA, coated target, A405 [lower panel]
# Protocol: as §1
# [24] = molecular target: T3, human-derived cell death receptor 4, …; experiment: yeast display, flow cytometry MFI [panel KD548]
# [25] = molecular target: T5, human-derived cell death receptor 5, …; experiment: competitive ELISA on coated DR5, biotinylated KD548 with KD506 (amount not given), A405
binder,measurement,setting,value
B1,"EC50 (a concentration of protein causing a 50% cell death), Jurkat, MTT assay",cell surface DR4,90 nM
same,EC50 (read off the curve),[1],~200 nM
same,EC50 (read off the curve),[2],~100 nM
same,EC50 (read off the curve),[3],~100 nM
same,EC50 (read off the curve),[4],~800 nM
same,EC50 (read off the curve),[5],~200 nM
same,EC50 (read off the curve),[6],~200 nM
same,binding result,DcR1 [7],no binding
same,binding result,DcR2,no binding
same,EC50 (read off the curve),[8],~800 nM
same,EC50 (read off the curve),[9],~400 nM
B2,binding result,[10],no binding
same,binding result,[11],no binding
same,binding result,DcR1 [12],no binding
same,binding result,DcR2,no binding
B3,"EC50 (a concentration of protein causing a 50% cell death), HL60, MTT assay",cell surface DR4,130 nM
same,"EC50 (a concentration of protein causing a 50% cell death), Jurkat, MTT assay",cell surface DR4,200 nM
same,EC50 (read off the curve),[13],~300 nM
same,EC50 (read off the curve),[3],~300 nM
same,EC50 (read off the curve),[14],~200 nM
same,EC50 (read off the curve),[15],~300 nM
same,binding result,DcR1 [12],no binding
same,binding result,DcR2,no binding
same,EC50 (read off the curve),[16],~200 nM
B4,EC50 (read off the curve),[1],~300 nM
same,EC50 (read off the curve),[17],~200 nM
same,EC50 (read off the curve),[18],~200 nM
B5,"EC50 (a concentration of protein causing a 50% cell death), HL60, MTT assay",cell surface DR5,260 nM
same,EC50 (read off the curve),[19],~600 nM
same,EC50 (read off the curve),[20],~200 nM
same,EC50 (read off the curve),[21],~900 nM
same,EC50 (read off the curve),[22],~600 nM
same,EC50 (read off the curve),[23],~200 nM
same,binding result,[24],binds
same,EC50 (read off the curve),[25],~600 nM
